The series is described as follows: protein stability index of a GFP-peptide fusion (GPS, HEK-293T) (PSI 1-6); higher = more stable. As to conditions: c terminus: a fixed tail appended.
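Also: lentivirally expressed fusions sorted by FACS into six bins by GFP to DsRed ratio, PSI derived from sequencing read proportions per bin multiplied by bin number.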

Regarding ITEEKVCMVCKKKIGNSAFARYPN, where the note is “parent: IOH40537_140”, the protein stability index is 2.44.

For the protein YANGGLNYSYRGYGALSSNLQPPA [C20orf112 WT], the protein stability index (parent: IOH40687_56) came out at 2.06. Regarding EQIAERKRKMVSWEASSLGLVTAA, the protein stability index (parent: IOH39874_95) was determined as 2.83. Take TRIMIGLTLVFFVQITGQPNILFY: the protein stability index (parent: IOH40813_47) amounted to 3.31. In the case of PTCPVCKDRASPADLRTNHTLNNL, the protein stability index (parent: IOH40792_10) was 2.83.

Regarding LTVYAWERGSMKTHFNTAQGFRTV, the protein stability index (parent: IOH41283_40) amounted to 2.27.

Take SKYENYFSASERLSLKRELSWYRG: for the setting “parent: IOH40237_15”, the protein stability index turned out to be 1.92.

With EDLTAKRKRMKMDKTCSKTKNKSK [FAM9B WT], the protein stability index (parent: IOH41618_11) is 4.96.

Turning to RTHTGEQPYTCSICRRNFSRRSSL [ZNF75A WT], where the note is “parent: IOH41486_45”, the protein stability index was determined as 2.88. On to FSPNSPQFNVSGPGLLEEDNQWMT, for which, for the setting “parent: IOH40093_33”, the protein stability index stood at 2.95. Consider YLPTRGGTTMASGGRFRCPSCRHE, for which the protein stability index (parent: IOH40604_11) is 1.83. As for ENKPSTCSFSIERILGLDQKKDCV, the protein stability index (parent: IOH40237_3) turned out to be 3.12. In the case of RVAKKLQSGLVWTNCWLIRELNLP, for the setting “parent: IOH41048_73”, the protein stability index stood at 2.99. Turning to TYLCERCQPRNLDKERAVLLQRRK, the protein stability index (parent: IOH39874_27) worked out at 2.15. Regarding LQLGEGVEFDVLPAFDALGQLTGG, the protein stability index (parent: IOH41283_24) was 1.9.

For the protein FQASNPYLPTRGGTTMASGGRFRC, where the note is “parent: IOH40604_10”, the protein stability index is 1.74. Consider WCLVQICEKYLPGYYSEKLEAIQL [TBC1D10A WT], for which the protein stability index (parent: IOH41348_37) was found to be 2.8.

On to YIGTHEYPHFSHRPSTLQAASTPQ, for which, under “parent: IOH41283_62”, the protein stability index was 1.94. As for HSGEKPFICKECGKAYGWCSELIR, the protein stability index (parent: IOH40635_69) was 2.02.

Regarding LYLQLAICSSLQNLEKTIFCLQKL, the protein stability index (parent: IOH40091_23) is 2.99.

On to CLLGLGSLVLILSLSYTVLIVGRI, for which, for the setting “parent: IOH40813_20”, the protein stability index was 3.34. Consider GKAYGWCSELIRHRRVHARKEPSH, for which, where the note is “parent: IOH40635_71”, the protein stability index was 2.85. Turning to YKSFSKEQQTMDNLEKQLICPICL, the protein stability index (parent: IOH40604_2) worked out at 2.08.

Regarding FTGSQPTAERITQLSAPHCKKLSL, the protein stability index (parent: IOH41048_39) came out at 2.08.

Turning to GVSKVGLRKIIDFIYTAKLSLNMD, the protein stability index (parent: IOH40892_24) came out at 2.67.

Turning to DCMGIDRQHIPDTYLCERCQPRNL, the protein stability index (parent: IOH39874_25) was found to be 2.99. Consider TPAKSLDKFIEDYLLPDTCFRMQI, for which, where the note is “parent: IOH41283_2”, the protein stability index was 2.79. Take TTLLKCYLHTNVALVAPLLRLENN: for the setting “parent: IOH40537_76”, the protein stability index amounted to 3.28. Regarding WSSRSPQERSRVLNQVADLLEQSL, the protein stability index (parent: IOH41048_11) came to 2.54.

On to QKKDCVPLMKPHRPWADTCSSSGK, for which the protein stability index (parent: IOH40237_6) was determined as 3.2.

For the protein TGEFLKLPFERLAFVLSSNSLKHC, the protein stability index (parent: IOH40892_39) came to 2.65. Turning to YIKVDWQRVEKDMKKAKEQLKIRK [FUNDC2 WT], the protein stability index (parent: IOH40818_22) was determined as 1.68. Take FPKSEQVYLHFLSVVTEDGPEPKD: the protein stability index (parent: IOH40635_35) stood at 2.15. On to KLAEAYLNLGPALSAALASSQKQH, for which, where the note is “parent: IOH40091_29”, the protein stability index worked out at 2.78. Regarding LRLENNHCHIEESEHVLKKAHKYS, the protein stability index (parent: IOH40537_79) worked out at 2.32. In the case of RFLRMLLRLADEFGVAVVITNQVV, the protein stability index (parent: IOH41191_42) was 2.39. Take INRADYCPECYPDNPANRSLVLPW [IFRG15 WT]: the protein stability index (parent: IOH41552_8) turned out to be 2.18. On to HVPNPPSGISFPSVVDHPMPEERA, for which the protein stability index (parent: IOH40237_11) turned out to be 2.54.

In the case of FSFKVSRWMGLACFRSLAASSPSI [CCDC70 WT], the protein stability index (parent: IOH40382_3) came out at 2.79. For the protein DKELLCCSCQADPRHQGHRVQPVK, the protein stability index (parent: IOH40792_20) was 3.56.

For APKKELINIKGISEAKADKILAEA, the protein stability index (parent: IOH41191_10) came out at 4.71. With LTLVFFVQITGQPNILFYASTVLK, the protein stability index (parent: IOH40813_48) came out at 2.98.

Turning to YNENVYTEDGKLDIWSKSNYQVFQ [MED27 WT], the protein stability index (parent: IOH39902_37) turned out to be 2.11.

Turning to YCAKLCEPQWFYEETESSDDVEVL, the protein stability index (parent: IOH40091_6) was 2.25. Take ICPICLEMFTKPVVILPCQHNLCR: the protein stability index (parent: IOH40604_5) is 2.21.

With QSSHYLQWILDKQDLLKERQKDLK [CCNC WT], the protein stability index (parent: IOH40631_2) worked out at 3.21. As for NLDTEELCEYFSQHLGEYENVLAA, the protein stability index (parent: IOH40093_14) came out at 2.41.

Consider VVAYLALAALSATISFRIYKSVLQ [RTN1 WT], for which, where the note is “parent: IOH40898_10”, the protein stability index worked out at 3.02.

Take WIHRPGCRCKNSNTVYCKLESCPS [SPRY1 WT]: where the note is “parent: IOH39997_49”, the protein stability index was 2.19. With WEVQVSPTCPVCKDRASPADLRTN, the protein stability index (parent: IOH40792_9) was determined as 2.54.

As for QQVKCIITEEKVCMVCKKKIGNSA, under “parent: IOH40537_139”, the protein stability index is 2.82. FQMEKIEHGYENMNHFTVNLNREE: for the setting “parent: IOH40604_50”, the protein stability index was 2.79. Turning to TIRLRPRQVLCEKCKSTLSPPEAS [PWWP2B WT], the protein stability index (parent: IOH40143_16) was found to be 3.06.

For the origin of these results see the supplement of paper PMC10567573.
